Experimental data as given in patent US20030215792A1.

Molecular target: CXCR4 receptor on cultivated primary astrocytes of rats (rat) (UniProt O08565)
Experiment: cell-based or functional assay

Chain of UniProt O08565 (O08565 whole entry): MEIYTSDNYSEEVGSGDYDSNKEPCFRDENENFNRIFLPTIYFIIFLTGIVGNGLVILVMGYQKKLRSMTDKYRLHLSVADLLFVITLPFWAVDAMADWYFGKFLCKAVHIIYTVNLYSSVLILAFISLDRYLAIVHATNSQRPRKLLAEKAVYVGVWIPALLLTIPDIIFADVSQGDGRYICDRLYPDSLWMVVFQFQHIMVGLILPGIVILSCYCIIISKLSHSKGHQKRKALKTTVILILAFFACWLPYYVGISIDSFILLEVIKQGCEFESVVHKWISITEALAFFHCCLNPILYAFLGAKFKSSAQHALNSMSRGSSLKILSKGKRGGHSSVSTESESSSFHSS

## SDF-1α (R&D Systems, Wiesbaden) (ligand)
  decrease in intracellular calcium outflow in cultivated astrocytes after 5 minutes' pre-incubation with monoclonal antibody 12G5: 50%
